Data: the Human Domainome abundance scans (Beltran et al. 2025)

B1: Zinc finger MYM-type protein 2, residues 463 to 506; numbered along this chain, Q9UBW7 (parent)
chain: IMNCCEQCGEYLPSKGAGNNVLVIDGQQKRFCCQSCVSEYKQVG

Variants of: B1
Assay: abundance fitness (aPCA) (normalised: wild type 0, dead -1); higher = more abundant; growth selection in yeast, the domain comes from the species named
Conditions: Homo sapiens

Abundance fitness: each site, then its substitutions
E6: Q -0.116 | P -0.253 | R -0.369 | H -0.256 | N -0.241 | V -0.256 | Y -0.267 | A -0.197 | F -0.229 | D 0.071 | T -0.222 | W -0.375 | G -0.184 | K -0.231
Q7: Y -0.222 | W -0.214 | A -0.09 | H -0.076 | V -0.288 | G -0.137 | K -0.135 | C -0.034 | R -0.019 | D -0.466 | T -0.139 | L -0.226 | N -0.436 | E -0.26 | M -0.152
E10: K -0.068 | N -0.389 | W -0.4 | M -0.656 | Q -0.403 | T -0.751 | S -0.358 | H -0.224 | L -1.08 | P -0.356 | I -0.66 | V -0.86 | D -0.197 | A -0.477
L12: C -0.384 | S -0.501 | N -0.482 | W -0.467 | E -0.004 | M -0.46 | T -0.28 | Y -0.444 | Q -0.294 | G -0.385 | A -0.246 | P -0.14 | D -0.174 | R -0.498 | K -0.312
M2: G -0.148 | W -0.687 | R -0.179 | Q -0.141 | H -0.25 | C -0.286 | N -0.009 | D -0.049 | E 0.118 | T -0.059 | P -0.376 | I -0.145 | L -0.104 | K 0.124 | A -0.162 | S 0.073
V21: K 0.395 | W -0.02 | N -0.397 | D -0.014 | R -0.264 | L -0.162 | E 0.128 | S -0.153 | C -0.302 | Q -0.172 | A -0.065 | P -0.402 | M -0.103 | G -0.129
S14: T -0.09 | G -0.098 | D 0.241 | R -0.456 | Q -0.123 | K -0.283 | C -0.072 | Y -0.802 | L -0.107 | F -0.548 | W -0.454 | E 0.13 | M -0.361 | P 0.33
P13: K -0.678 | M -0.59 | R -0.515 | E -0.171 | T -0.094 | S -0.207 | G -0.278 | V -0.669 | Q -0.063 | H -0.187 | C 0.105 | W -0.536 | L -0.438 | N -0.565
C5: R -0.697 | H -0.641 | T -0.587 | M -0.979 | K -0.38 | A -0.65 | P -0.854 | I -1.08 | L -0.922 | G -0.7 | W -1.5 | S -0.524 | E -0.377 | D -0.637 | V -0.884
I1: P -0.222 | T -0.162 | S -0.172 | Y -0.402 | R -0.255 | W -0.746 | V 0
K15: M 0.3 | A 0.089 | V 0.011 | G 0.103 | Y 0.07 | S 0.114 | D 0.229 | L -0.094 | P 0.189 | H 0.119 | C -0.012 | W -0.124
C4: M -0.146 | R 0.012 | D -0.007 | T -0.021 | L -0.09 | H 0.019 | P -0.126 | A -0.147 | S 0.25 | G -0.089 | W -0.242 | N 0.214 | Y -0.45 | Q 0.142 | V -0.029 | K 0.125
C8: S -0.337 | A -0.505 | Y -0.311 | W -1.41 | D -0.77 | G -0.391 | Q -0.573 | E -0.307 | L -1.05 | V -0.712 | P -0.775 | H -0.233 | R -0.611 | F -1.18 | M -1.1
G16: S -0.047 | A -0.06 | W -0.319 | P -0.175 | T 0.202 | C -0.113 | R -0.562 | H -0.249 | L -0.214 | M 0.007 | Q 0.07 | E 0.136 | V -0.272
G9: C -0.148 | V -0.563 | W -0.442 | E -0.495 | Y 0.102 | R -0.436 | K -0.511 | I -0.417 | P -0.68 | T -0.018 | A -0.17 | F -0.001 | Q -0.067 | D -0.671 | L -0.289
N20: G -0.119 | K -0.209 | W -0.191 | L -0.103 | V -0.019 | M -0.038 | D -0.248 | H 0.087 | Y -0.065 | C 0 | A -0.037 | R -0.285
V23: N -0.123 | Q 0.181 | G -0.107 | S 0.025 | T 0.15 | I 0.031 | M 0.18 | K -0.052 | E 0.204 | R -0.011 | L -0.235 | H -0.079 | D -0.017 | W -0.063 | F 0.23 | A -0.121 | Y -0.093
L22: K -0.073 | V -0.016 | W -0.187 | Q -0.057 | I -0.142 | P -0.059 | F -0.184 | S -0.164 | G -0.132 | A -0.072 | Y 0.165 | N -0.163 | C -0.258 | D 0.001 | R -0.136 | E 0.015
N19: E 0.338 | I -0.141 | G 0.006 | M -0.061 | H -0.157 | W -0.212 | L -0.051 | K -0.287 | Q -0.107 | R -0.249 | F -0.023 | S 0.001 | C -0.069
G18: L -0.432 | D 0.59 | E 0.302 | M -0.214 | S -0.347 | P 0.007 | A 0.015 | C -0.247 | T -0.377 | W -0.197
I24: A 0.005 | N -0.176 | P -0.126 | M -0.122 | R -0.085 | F 0.052 | Q -0.177 | K -0.079 | C -0.124 | G -0.066
A17: P -0.274 | C -0.11 | R -0.628 | G -0.095 | K -0.521 | L -0.188 | E 0.116 | Q -0.069 | H -0.337 | D 0.012 | T -0.309 | V -0.223
Y11: H 0.298 | W -0.237 | A 0.176 | T 0.319 | D 0.282 | R 0.219 | E 0.296 | V 0.117 | N 0.28 | M -0.099 | F -0.133 | C 0.035 | Q 0.313 | P 0.144 | S 0.252 | G 0.227 | I -0.145 | L 0.034 | K 0.361
N3: I -0.237 | W -0.402 | Q -0.232 | S -0.141 | P -0.345 | G -0.119 | V -0.366 | M -0.194 | K -0.231 | E -0.036 | F -0.035 | A -0.09 | C -0.215 | D -0.045 | T -0.249 | H -0.154
